Data on two molecules can be found in patent KR20230148435A.

For experiment [1], the target named is HGF protein (hepatocyte growth factor) (UniProt P14210). The experiment in a line: ELISA, HGF coated on plate, 24 h culture supernatant of YYB-103-1XX+YYB-101 scFv CAR-T cells. Background: In an ELISA, binding on a coated surface is turned into a signal by an enzyme label.
For experiment [2] the target is unchanged. The experiment is described as follows: ELISA, HGF coated on plate, YYB-101 at 1 ug/mL as positive control.

UniProt P14210, sequence (P14210 32-728 limits assumed): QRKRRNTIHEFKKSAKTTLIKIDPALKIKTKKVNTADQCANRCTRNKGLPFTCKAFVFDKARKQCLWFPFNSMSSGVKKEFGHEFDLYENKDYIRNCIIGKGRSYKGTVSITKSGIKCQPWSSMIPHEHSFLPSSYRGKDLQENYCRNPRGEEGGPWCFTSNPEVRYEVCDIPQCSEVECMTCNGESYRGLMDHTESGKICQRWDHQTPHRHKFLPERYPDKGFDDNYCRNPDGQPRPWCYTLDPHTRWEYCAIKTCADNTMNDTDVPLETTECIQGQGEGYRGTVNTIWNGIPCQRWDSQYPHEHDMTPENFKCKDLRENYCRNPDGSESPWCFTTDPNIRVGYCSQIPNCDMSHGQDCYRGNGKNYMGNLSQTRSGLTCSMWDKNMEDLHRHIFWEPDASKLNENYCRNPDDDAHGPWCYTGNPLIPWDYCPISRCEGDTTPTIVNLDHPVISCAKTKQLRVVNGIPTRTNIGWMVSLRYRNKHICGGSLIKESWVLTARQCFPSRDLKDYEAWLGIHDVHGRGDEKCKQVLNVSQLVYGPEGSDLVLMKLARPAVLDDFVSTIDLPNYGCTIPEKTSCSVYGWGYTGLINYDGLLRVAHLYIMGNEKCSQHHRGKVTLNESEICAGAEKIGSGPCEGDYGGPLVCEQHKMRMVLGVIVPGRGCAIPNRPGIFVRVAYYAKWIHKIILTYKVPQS

B1: YYB-101 Single Chain Variable Fragment (scFv) (scFv)
scFv: DIQMTQSPSSLSASVGDRVTITCRASQGISNILAWYQQKPGKAPKLLIYGASNLESGVPSRFSGSGSGTDFTLTISSLQPEDFATYYCQSGYYSRGATFGQGTKVEIKGGGGSGGGGSGGGGSEVQLVESGGGLVQPGGSLRLSCAASGFTFSTYYMSWVRQAPGKGLEWVAYIGTSSGTTYYADSVKGRFTISRDGSKNTLYLQMNSLRAEDTAVYYCARGLGRINLWGQGTLVTVSS
In turn, B1 displayed an OD, 450nm (HGF 결합) in experiment [1] of 2.63 OD 450 nm.

B2: YYB-101 (HGF neutralising antibody) (antibody, human IgG4 S228P, kappa, V domains shown)
VH: EVQLVESGGGLVQPGGSLRLSCAASGFTFSTYYMSWVRQAPGKGLEWVAYIGTSSGTTYYADSVKGRFTISRDGSKNTLYLQMNSLRAEDTAVYYCARGLGRINLWGQGTLVTVSS
VL: DIQMTQSPSSLSASVGDRVTITCRASQGISNILAWYQQKPGKAPKLLIYGASNLESGVPSRFSGSGSGTDFTLTISSLQPEDFATYYCQSGYYSRGATFGQGTKVEIKR
Turning to B2, in experiment [2], the OD, 450nm (HGF 결합) was 3.02 OD 450 nm.
